The source of these data is patent US12018066 (TRIAD NATIONAL SECURITY, dated 2024).

As usually defined, the Kd is the equilibrium constant for the complex coming apart.

The target of experiment [1] is T1, SARS-CoV-2 spike protein receptor binding domain (RBD2) (SARS-CoV-2, UniProt P0DTC2 319-537). The experiment can be described thus: SPR, immobilized antibody, RBD injected, 1:1 fit.
The target in experiment [2] is SARS-CoV spike protein receptor binding domain (RBD1) (SARS-CoV, UniProt P59594 306-527). The experiment can be described thus: ELISA, crude human minibody. On the technique in general: In an ELISA, binding on a coated surface is turned into a signal by an enzyme label.
The target of experiment [3] is T1, SARS-CoV-2 spike protein receptor …. The experiment can be described thus: SPR. (In SPR one partner is held on a chip, and binding of the other changes the refractive index at the surface.)

B1: D11 minibody (scFv-Fc) (Fc fusion)
chain: SYELTQPPSVSVAPGQTARITCGGNNIGSKSVHWYQQKPGQAPVLVVYDDSDRPSGIPERFSGSNSGNTATLTISGTQAMDEADYYCQAWDSSTAYVFGSGTKLTVLSGGSTITSYNVYYTKLSSSGTQVQLEESGGGLVQPGGSLRLSCAASGFTFSNYAMSWVRQAPGKGLEWVSAISGSGGATFHADSVKGRFTISRDNSKNTLYLQMNSLRAEDTAVYYCARRVGYDSSGYYWSDAFDIWGQGTMVTVSS
Take B1: binding in experiment [1] was characterised by a dissociation constant (Kd) of 798 nM.

B2: R09 minibody (scFv-Fc) (Fc fusion)
chain: QPGLTQPPSVSVSPGQTASITCSGDKLGYKYVSWYQQKPGQSPVLVIYEDTKRPSGIPKRFSGSNSGNTATLTICGTQAVDEADYYCQAWDSSVVFGGGTKLTVLSGGSTITSYNVYDTKLSSSGTQVQLVQSGAEVKKPGASVKVSCKASGYTFTSYGISWVRQAPGQGLEWMGWISAYNGNTNYAQKFQGRVTMTTDTSTSTAYMELRSLRSDDTAVYYCARDMELRPPFDYWGQGTLVTVSS
Take B2: in experiment [1], the Kd stood at 539 nM.

B3: H03 minibody (scFv-Fc) (Fc fusion)
chain: SYELTQPPSVSVAPGQTARITCGGNNIGSKSVHWYQQKPGQAPVLVIYYDSDRPSGIPERFSGSNSGNTATLTISRVEAGDEADYYCQVWDSSSALYVFGTRTKVTVLSGGSTITSYNVYYTKLSSSGTQVQLVESGGGLVQPGRSLRLSCAASGFTFDDYAMHWVRQAPGKGLEWVSGISWNSGSIGYADSVKGRFTISRDNAKNSLYLQVNSLRAEDTAVYYCARELIVGTTSPQTDAFDIWGQGTMVTVSS
Consider B3, for which binding in experiment [1] was put at a Kd of 117 nM. Against the preceding molecule, the Kd is about 4.6-fold lower.

B4: B10 human minibody (scFv-human Fc) (Fc fusion)
scFv-Fc: QSVVTQPPSVSGAPGQRVTISCTGSSSNIGSRTVNWYQQLPGTAPKLLIYANNQRPSGVPDRFSGSKSGTSASLAISGLQSEDEADYYCAAWDDSLNGYVFGTGTKLTVLSGGSTITSYNVYYTKLSSSGTQVQLQQSGPGLVKPSQTLSLTCAISGDSVSSNSATWNWIRQSPSRGLEWLGRTYYGSKWHSDYAVSVKSRITINPDTSKNQISLHLNPVTPEDTAVYYCARGRSYAFDIWDQGTMVTVSS
Consider B4, for which the binding result in experiment [2] is recorded as “no binding”.

B5: B10 minibody (scFv-Fc) (Fc fusion)
chain: QSVVTQPPSVSGAPGQRVTISCTGSSSNIGSRTVNWYQQLPGTAPKLLIYANNQRPSGVPDRFSGSKSGTSASLAISGLQSEDEADYYCAAWDDSLNGYVFGTGTKLTVLSGGSTITSYNVYYTKLSSSGTQVQLQQSGPGLVKPSQTLSLTCAISGDSVSSNSATWNWIRQSPSRGLEWLGRTYYGSKWHSDYAVSVKSRITINPDTSKNQISLHLNPVTPEDTAVYYCARGRSYAFDIWDQGTMVTVSS
In experiment [1], B5 registered a Kd of 344 nM. That is a sub-micromolar value.

B6: D04 human minibody (scFv-human Fc) (Fc fusion)
scFv-Fc: SYVLTQPPSVSVAPGKTARITCGGNNIGWKSVHWYQQKPGQAPVLVVYNDNDRPSGVPERFSGSNSGNTATLTISRVVAGDEADYYCQVWDSSSDHVLFGGGTKLTVLSGGSTITSYNVYYTKLSSSGTQVQLVQSGAEVKKPGSSVKVSCKASGGTFSSYAISWVRQAPGQGLEWMGGIIPIFGTANYAQKFQGRVTITADESTSTAYMELSSLRSEDTAVYYCARASGRWLQFWHYYGMDVWGQGTTVTVS
As for B6, in experiment [2], the binding result is reported as “no binding”.

B7: D04 minibody (scFv-Fc) (Fc fusion)
chain: SYVLTQPPSVSVAPGKTARITCGGNNIGWKSVHWYQQKPGQAPVLVVYNDNDRPSGVPERFSGSNSGNTATLTISRVVAGDEADYYCQVWDSSSDHVLFGGGTKLTVLSGGSTITSYNVYYTKLSSSGTQVQLVQSGAEVKKPGSSVKVSCKASGGTFSSYAISWVRQAPGQGLEWMGGIIPIFGTANYAQKFQGRVTITADESTSTAYMELSSLRSEDTAVYYCARASGRWLQFWHYYGMDVWGQGTTVTVS
As for B7, the Kd in experiment [1] turned out to be 124 nM. That is a sub-micromolar value.

B8: G07 minibody (scFv-Fc) (Fc fusion)
chain: QSVLIQPPSASGTPGQRVTISCSGSNSNFGSNSVSWYQQRPGTAPKLLIEGNNQRPSGVPERFSGSKSGTSASLAISGLQSEDEAEYSCASWDDSLNAFVFGPGTKLTVLSGGSAITSYNVYYTKLSSSGTQVQLVQSGAEVKKPGESLKISCKGSGYSFTSYWIGWVRQMPGKGLEWMGIIYPGDSDIRYSPSFQGQVTISADKSFSSAYLQWSSLKASDTAMYYCARLGATGAFDIWGQGTTVTVSS
As to B8, the Kd in experiment [3] came to 63900 nM. This lies in the double-digit micromolar range.

B9: H02 minibody (scFv-Fc) (Fc fusion)
chain: QSVVTQPPSVSAAPGQKVTISCSGSSSNIGNNYVSWYQQLPGTAPKLLIYRDTQRPSGVPDRFSGSKSGTSASLAISGLRSEDEADYYCATWDKSLSGPVFGGGTKVTVLSGGSTITSYNVYYTKLSSSGTQVQLQQSGPGLVKPSQTLSLTCAISGDSVSSNSAAWNWIRQSPSRGLEWLGRTYYRSKWYNDYAVSVKSRIIINPDTSKNQFSLQLNSVTPEDTAVYYCARQDNNPYYGLDVWGQGTTVTVSS
For B9, the Kd in experiment [1] worked out at 15.5 nM. This lies in the double-digit nanomolar range.

B10: B04 human minibody (scFv-human Fc) (Fc fusion)
scFv-Fc: SYVLTQPPSVSVAPGKTARITCGGNNIGIRSVHWYQQKPGQAPVLVIYYDSDRPSGIPERFSGSKSGNTATLTISRVEAGDEADYYCQVWDSSSDHPVFGGGTKLTVLSGGSTITSYNVYYTKLSSSGTQVQLVESGAEVKKPGASVKVSCKASGYTFTRYYMHWVRQAPGQGLEWMGIINPSGGTTSYAQKFQGRVTMTRDTSTSTVYMELSSLRSEDTAVYYCARSFGELTSFDYWGQGTLVTVSS
With B10, the binding result in experiment [2] is on record as “no binding”.

B11: B04 minibody (scFv-Fc) (Fc fusion)
chain: SYVLTQPPSVSVAPGKTARITCGGNNIGIRSVHWYQQKPGQAPVLVIYYDSDRPSGIPERFSGSKSGNTATLTISRVEAGDEADYYCQVWDSSSDHPVFGGGTKLTVLSGGSTITSYNVYYTKLSSSGTQVQLVESGAEVKKPGASVKVSCKASGYTFTRYYMHWVRQAPGQGLEWMGIINPSGGTTSYAQKFQGRVTMTRDTSTSTVYMELSSLRSEDTAVYYCARSFGELTSFDYWGQGTLVTVSS
Consider B11, for which the equilibrium dissociation constant (Kd) in experiment [3] and in experiment [1] was 56.8 nM throughout.

B12: E08 human minibody (scFv-human Fc) (Fc fusion)
scFv-Fc: SYVLTQPPSVSVAPGKTARITCGGNNIGWKSVHWYQQKPGQAPVLVVYDDSDRPSGIPERFSGSNSGNTATLTISRVEAGDEADYYCQVWDSSSDLVVFGGGTKLTVLSGGSTITSYNVYYTKLSSSGTQVQLVQSGAEVKKPGSSVKVSCKASGGTFSSYAISWVRQAPGQGLEWMGGIIPIFGTANYAQKFQGRVTITADESTSTAYMELSSLRSEDTAVYYCARASGRWLQFWHYYGMDVWGQGTTVTVSS
For the molecule B12, the binding result in experiment [2] was “binds”.

B13: D10 human minibody (scFv-human Fc) (Fc fusion)
scFv-Fc: QSVVTQPPSASGSPGQTVTISCSGNSANIGGNPVNWYQQLPGTAPKLLIYSNNQRPSGVPDRFSGSKSGISASLAISGLQSEDEADYYCAAWDDSLNGVIFGGGTKLTVLSGGSTITSYNVYYTKLSSSGTQVQLVQSGAEVKKPGESLKISCKGSGYSFTSYWIGWVRQMPGKGLEWMGIIYPGDSDTRYSPSFQGQVTISADKSISTAYLQWSSLKASDTAMYYCARRHSGSYSGAFDIWGQGTMVTVSS
Turning to B13, the binding result in experiment [2] was “no binding”.

B14: H01 human minibody (scFv-human Fc) (Fc fusion)
scFv-Fc: QPGLTQPPSVSLAPGQTARITCGGNNIGSKSVHWYQQKPGQAPVLVVYDDSDRPSGIPERFSGSNAGNTATLTISRVEAGDEADYYCQVWDSRSDQYVFGTRTKLTVLSGGSTITSYNVYYTKLSSSGAQVTLKESGPVLVKPTETLTLTCTVSGFSLSNARMGVSWIRQPPGKALEWLAHIFSNGEKSYSTSLKSRLTISKDTSKSQVVLTMTNMDPVDTATYYCARTLDYYDSSGYLVGGAFDIWGQGTMVTVSS
B14: the binding result in experiment [2] is recorded as “no binding”.

B15: D07 minibody (scFv-Fc) (Fc fusion)
chain: SYELTQPPSVSVAPGETARMTCGGNNIGTKGVHWYQQKPGQAPVLVVYDDSDRPSGIPERFSGSNAGNTATLTISRVEAGDEADYYCQVWDSRSDQYVFGTRTKLTVLSGGSTITSYNVYYTKLSSSGAQVTLKESGPVLVKPTETLTLTCTVSGFSLSNARMGVSWIRQPPGKALEWLAHIFSNGEKSYSTSLKSRLTISKDTSKSQVVLTMTNMDPVDTATYYCARTLDYYDSSGYLVGGAFDIWGQGTMVTVSS
In the case of B15, the Kd in experiment [1] amounted to 134 nM.

B16: D07 human minibody (scFv-human Fc) (Fc fusion)
scFv-Fc: SYELTQPPSVSVAPGETARMTCGGNNIGTKGVHWYQQKPGQAPVLVVYDDSDRPSGIPERFSGSNAGNTATLTISRVEAGDEADYYCQVWDSRSDQYVFGTRTKLTVLSGGSTITSYNVYYTKLSSSGAQVTLKESGPVLVKPTETLTLTCTVSGFSLSNARMGVSWIRQPPGKALEWLAHIFSNGEKSYSTSLKSRLTISKDTSKSQVVLTMTNMDPVDTATYYCARTLDYYDSSGYLVGGAFDIWGQGTMVTVSS
Consider B16, for which the binding result in experiment [2] is “no binding”.

B17: H01 minibody (scFv-Fc) (Fc fusion)
chain: QPGLTQPPSVSLAPGQTARITCGGNNIGSKSVHWYQQKPGQAPVLVVYDDSDRPSGIPERFSGSNAGNTATLTISRVEAGDEADYYCQVWDSRSDQYVFGTRTKLTVLSGGSTITSYNVYYTKLSSSGAQVTLKESGPVLVKPTETLTLTCTVSGFSLSNARMGVSWIRQPPGKALEWLAHIFSNGEKSYSTSLKSRLTISKDTSKSQVVLTMTNMDPVDTATYYCARTLDYYDSSGYLVGGAFDIWGQGTMVTVSS
Regarding B17, the dissociation constant (Kd) in experiment [3] and in experiment [1] was 281 nM each time.

B18: R04 minibody (scFv-Fc) (Fc fusion)
chain: EIVMTQSPSSLSASVGDRVTITCQASQDISNYLNWCQQKPGKAPKLLIYDASNLETGVPSRFSGSGSGTGFTFTISSLQPEDFATYYCQQSYSTPYTFGQGTKVEIKSGGSTITSYNVNYTKLSSSGAQVQLQQSGPGLVKSSQTLSLTCAISGDSVSSNGAAWHWIRQSPSRGLEWLGRTYYRSGWYNDYAVSVKSRITINQDTSKNQFSLQLNSVTPEDTAVYFCAREGGGGRMDVWSQGTTVTVSS
In the case of B18, the Kd in experiment [3] and in experiment [1] was 128 nM each time.

B19: R04 IgG1 (antibody, V domains shown)
VH: QVQLQQSGPGLVKSSQTLSLTCAISGDSVSSNGAAWHWIRQSPSRGLEWLGRTYYRSGWYNDYAVSVKSRITINQDTSKNQFSLQLNSVTPEDTAVYFCAREGGGGRMDVWSQGTTVTVSS
VL: EIVMTQSPSSLSASVGDRVTITCQASQDISNYLNWCQQKPGKAPKLLIYDASNLETGVPSRFSGSGSGTGFTFTISSLQPEDFATYYCQQSYSTPYTFGQGTKVEIK
Take B19: the Kd in experiment [3] and in experiment [1] was 190000 nM in each case.
